As usually defined, the pKd is the negative decadic logarithm of the Kd, by convention in mol/L.

Among the data in article doi:10.1101/2024.11.16.623948 are Kd values, retold here.

In data set [1] the target is FLAG-Ago1 (Drosophila melanogaster) (UniProt A1Z9J5). Description: filter binding. The conditions noted are these: guide 5' phosphate; RBNS: 20 mM HEPES-KOH pH 7.9, 100 mM KOAc, 3.5 mM Mg(OAc) (magnesium acetate), 0.05% CHAPS, 2 mM DTT, 8% glycerol, BSA, tRNA, 25 C 2 h; filter binding: 25 mM ….
For data set [2], the target named is T1, PUM2 (human) (UniProt Q8TB72).
T1 sequence: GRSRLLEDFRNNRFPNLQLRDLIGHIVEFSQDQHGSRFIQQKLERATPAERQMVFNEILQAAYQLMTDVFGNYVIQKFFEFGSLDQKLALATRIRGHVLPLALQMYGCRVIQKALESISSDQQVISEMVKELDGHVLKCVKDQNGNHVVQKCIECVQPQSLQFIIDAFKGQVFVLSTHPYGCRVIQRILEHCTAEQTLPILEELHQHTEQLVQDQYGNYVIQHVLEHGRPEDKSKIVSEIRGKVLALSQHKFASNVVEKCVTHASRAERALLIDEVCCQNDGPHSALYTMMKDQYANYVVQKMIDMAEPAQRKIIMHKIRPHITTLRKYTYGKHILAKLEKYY
Description: RBNS. The conditions noted are these: RBNS: 20 mM HEPES-KOH pH 7.9, 100 mM KOAc, 3.5 mM Mg(OAc) (magnesium acetate), 0.05% CHAPS, 2 mM DTT, 8% glycerol, BSA, tRNA, 25 C 2 h; filter binding: 25 mM ….

pKd: −log10 of the molar value.

Chain of FLAG-Ago1 (Drosophila melanogaster) (A1Z9J5 entry or part of it): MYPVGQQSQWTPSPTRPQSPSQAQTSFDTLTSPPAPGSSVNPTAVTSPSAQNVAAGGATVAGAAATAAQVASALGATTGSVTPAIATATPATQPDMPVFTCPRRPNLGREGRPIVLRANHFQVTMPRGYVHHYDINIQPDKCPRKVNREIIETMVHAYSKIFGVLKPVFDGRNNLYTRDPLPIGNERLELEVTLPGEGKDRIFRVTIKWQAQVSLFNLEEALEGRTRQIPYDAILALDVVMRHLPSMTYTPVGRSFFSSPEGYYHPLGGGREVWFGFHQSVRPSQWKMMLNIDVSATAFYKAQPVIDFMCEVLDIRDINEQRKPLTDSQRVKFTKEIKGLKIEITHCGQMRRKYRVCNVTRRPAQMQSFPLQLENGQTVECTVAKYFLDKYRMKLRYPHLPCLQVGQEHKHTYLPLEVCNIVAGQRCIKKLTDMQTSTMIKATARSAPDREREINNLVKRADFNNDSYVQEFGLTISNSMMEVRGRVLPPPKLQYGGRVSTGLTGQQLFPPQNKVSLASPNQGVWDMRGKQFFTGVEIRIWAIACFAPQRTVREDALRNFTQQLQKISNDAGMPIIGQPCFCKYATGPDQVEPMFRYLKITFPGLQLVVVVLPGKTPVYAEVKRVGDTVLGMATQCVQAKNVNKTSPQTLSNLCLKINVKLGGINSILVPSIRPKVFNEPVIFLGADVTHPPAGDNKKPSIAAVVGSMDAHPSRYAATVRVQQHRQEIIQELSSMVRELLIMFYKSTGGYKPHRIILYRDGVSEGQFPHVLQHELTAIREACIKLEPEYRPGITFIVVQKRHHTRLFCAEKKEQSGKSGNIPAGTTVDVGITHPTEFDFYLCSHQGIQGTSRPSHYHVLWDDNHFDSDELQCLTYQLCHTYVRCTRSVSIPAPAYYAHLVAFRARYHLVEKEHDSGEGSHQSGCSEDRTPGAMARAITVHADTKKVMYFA

With “UGAGGUAGUAGGUUGUAUAGU / AAAAAAAAAAAAUCUACCUCU [let-7 / seed-matching target]”, in data set [1], the negative logarithm of the Kd (pKd) was 11.30.

In data set [1], “UGAGGUAGUAGGUUGUAUAGU / ACUAUACAACCUACUACCUCA [let-7 / fully complementary target]” had a pKd of 11.70.

In data set [2], UGUAUAUA [PUM consensus site] gave a negative-log Kd (pKd) of 9.49.
